In patent publication US20260176254A1, “INHIBITORS OF PROSTATE SPECIFIC MEMBRANE ANTIGEN AND USE THEREOF” (SHANGHAI SINOTAU BIOTECH. CO., LTD, priority 2023, published 2026):

Experiments:
[1] = Tissue biodistribution in 22Rv1 tumor mouse model; parameters: species or system mice; details: male, nude, in vivo, iv, total radioactivity
Text: (§1) LnCAP and 22RV1 CDX xenograft tumor models were generated by inoculating 5×10^6 cells/site subcutaneously in male SCID or nude mice (Vital River), respectively. Animals were housed according to IACUC guidance and had accessed to food and water ad libitium. Animals were used for biodistribution study when the tumor dimensions reached around 0.2-0.3 cm^3. […] At each tome point, animals were sacrificed and tissues were collected, weighted, and subjected to radioactivity measurements using gamma counter. Radioactivity in the tissues was presented in % ID/g (percent of injected dose per gram).

[2] = Tissue biodistribution in LnCAP tumor mouse model; parameters: species or system mice; details: male, SCID, in vivo, iv, total radioactivity
Text: as §1

[3] = Tissue biodistribution: Salivary Gland

O=C(O)CCC[C@H](NC(=O)N[C@@H](CCCCNC(=O)[C@H](Cc1c2ccccc2cc2ccccc12)Nc1c(NC23CCC(c4nnc(CN5CCN(CC(=O)O)CCN(CC(=O)O)CCN(CC(=O)O)CC5)o4)(CC2)CC3)c(=O)c1=O)C(=O)O)C(=O)O [[^177Lu]Lu-E7, metal not drawn]
tissue uptake dose at 2 h [1]: 5.17 ± 0.12 %ID
tissue uptake dose at 6 h [1]: 1.71 ± 0.03 %ID
tissue uptake dose at 24 h [1]: 1.36 ± 0.04 %ID
tissue uptake dose at 72 h [1]: 1.29 ± 0.06 %ID
tissue uptake dose at 168 h [1]: 0.23 ± 0.02 %ID
tissue uptake at 2 h ([1]; Tissue biodistribution: Blood): 0.23 ± 0.05 %ID/g
tissue uptake at 6 h ([1]; Tissue biodistribution: Blood): 0.04 %ID/g
tissue uptake at 24 h ([1]; Tissue biodistribution: Blood): 0.02 %ID/g
tissue uptake at 72 h ([1]; Tissue biodistribution: Blood): 0.02 %ID/g
tissue uptake at 168 h ([1]; Tissue biodistribution: Blood): 0.02 ± 0.01 %ID/g
tissue uptake at 2 h ([1]; Tissue biodistribution: Bone): 0.3 ± 0.02 %ID/g
tissue uptake at 6 h ([1]; Tissue biodistribution: Bone): 0.28 ± 0.05 %ID/g
tissue uptake at 24 h ([1]; Tissue biodistribution: Bone): 0.26 ± 0.03 %ID/g
tissue uptake at 72 h ([1]; Tissue biodistribution: Bone): 0.26 ± 0.06 %ID/g
tissue uptake at 168 h ([1]; Tissue biodistribution: Bone): 0.29 ± 0.1 %ID/g
tissue uptake at 2 h ([1]; Tissue biodistribution: Heart): 0.15 ± 0.02 %ID/g
tissue uptake at 6 h ([1]; Tissue biodistribution: Heart): 0.06 ± 0.01 %ID/g
tissue uptake at 24 h ([1]; Tissue biodistribution: Heart): 0.05 %ID/g
tissue uptake at 72 h ([1]; Tissue biodistribution: Heart): 0.05 ± 0.01 %ID/g
tissue uptake at 168 h ([1]; Tissue biodistribution: Heart): 0.07 ± 0.01 %ID/g
tissue uptake at 2 h ([1]; Tissue biodistribution: Kidney): 15.2 ± 5.3 %ID/g
tissue uptake at 6 h ([1]; Tissue biodistribution: Kidney): 8.27 ± 2.15 %ID/g
tissue uptake at 24 h ([1]; Tissue biodistribution: Kidney): 6.73 ± 0.66 %ID/g
tissue uptake at 72 h ([1]; Tissue biodistribution: Kidney): 2.88 ± 1.02 %ID/g
tissue uptake at 168 h ([1]; Tissue biodistribution: Kidney): 0.95 ± 0.16 %ID/g
tissue uptake at 2 h ([1]; Tissue biodistribution: Liver): 0.18 ± 0.02 %ID/g
tissue uptake at 6 h ([1]; Tissue biodistribution: Liver): 0.11 ± 0.01 %ID/g
tissue uptake at 24 h ([1]; Tissue biodistribution: Liver): 0.11 ± 0.01 %ID/g
tissue uptake at 72 h ([1]; Tissue biodistribution: Liver): 0.12 ± 0.02 %ID/g
tissue uptake at 168 h ([1]; Tissue biodistribution: Liver): 0.11 ± 0.02 %ID/g
tissue uptake at 2 h ([1]; Tissue biodistribution: Lung): 0.41 ± 0.08 %ID/g
tissue uptake at 6 h ([1]; Tissue biodistribution: Lung): 0.12 ± 0.02 %ID/g
tissue uptake at 24 h ([1]; Tissue biodistribution: Lung): 0.1 %ID/g
tissue uptake at 72 h ([1]; Tissue biodistribution: Lung): 0.07 ± 0.01 %ID/g
tissue uptake at 168 h ([1]; Tissue biodistribution: Lung): 0.06 ± 0.01 %ID/g
tissue uptake at 2 h ([1]; Tissue biodistribution: Muscle): 0.1 ± 0.02 %ID/g
tissue uptake at 6 h ([1]; Tissue biodistribution: Muscle): 0.04 ± 0.02 %ID/g
tissue uptake at 24 h ([1]; Tissue biodistribution: Muscle): 0.02 %ID/g
tissue uptake at 72 h ([1]; Tissue biodistribution: Muscle): 0.02 %ID/g
tissue uptake at 168 h ([1]; Tissue biodistribution: Muscle): 0.02 %ID/g
tissue uptake at 2 h [1, 3]: 0.16 ± 0.01 %ID/g
tissue uptake at 6 h [1, 3]: 0.07 ± 0.01 %ID/g
tissue uptake at 24 h [1, 3]: 0.08 %ID/g
tissue uptake at 72 h [1, 3]: 0.06 ± 0.01 %ID/g
tissue uptake at 168 h [1, 3]: 0.06 ± 0.02 %ID/g
tissue uptake at 2 h ([1]; Tissue biodistribution: Spleen): 0.29 ± 0.03 %ID/g
tissue uptake at 6 h ([1]; Tissue biodistribution: Spleen): 0.12 ± 0.03 %ID/g
tissue uptake at 24 h ([1]; Tissue biodistribution: Spleen): 0.13 %ID/g
tissue uptake at 72 h ([1]; Tissue biodistribution: Spleen): 0.12 ± 0.01 %ID/g
tissue uptake at 168 h ([1]; Tissue biodistribution: Spleen): 0.15 ± 0.02 %ID/g
tissue uptake at 2 h ([1]; Tissue biodistribution: Tumor): 15.6 ± 4.67 %ID/g
tissue uptake at 6 h ([1]; Tissue biodistribution: Tumor): 15.6 ± 2.01 %ID/g
tissue uptake at 24 h ([1]; Tissue biodistribution: Tumor): 17.9 ± 0.87 %ID/g
tissue uptake at 72 h ([1]; Tissue biodistribution: Tumor): 12.1 ± 1.94 %ID/g
tissue uptake at 168 h ([1]; Tissue biodistribution: Tumor): 4.04 ± 0.66 %ID/g
tissue to tissue ratio at 2 h ([1]; Tumor/Blood): 70.2 ± 30
tissue to tissue ratio at 6 h ([1]; Tumor/Blood): 425 ± 28
tissue to tissue ratio at 24 h ([1]; Tumor/Blood): 848 ± 107
tissue to tissue ratio at 72 h ([1]; Tumor/Blood): 737 ± 174
tissue to tissue ratio at 168 h ([1]; Tumor/Blood): 345 ± 220
tissue to tissue ratio at 2 h ([1]; Tumor/Bone): 52.9 ± 18.6
tissue to tissue ratio at 6 h ([1]; Tumor/Bone): 57.4 ± 17.9
tissue to tissue ratio at 24 h ([1]; Tumor/Bone): 70 ± 5.18
tissue to tissue ratio at 72 h ([1]; Tumor/Bone): 47.8 ± 16.4
tissue to tissue ratio at 168 h ([1]; Tumor/Bone): 15.6 ± 6.16
tissue to tissue ratio at 2 h ([1]; Tumor/Kidney): 1.05 ± 0.32
tissue to tissue ratio at 6 h ([1]; Tumor/Kidney): 1.99 ± 0.69
tissue to tissue ratio at 24 h ([1]; Tumor/Kidney): 2.67 ± 0.15
tissue to tissue ratio at 72 h ([1]; Tumor/Kidney): 4.48 ± 1.26
tissue to tissue ratio at 168 h ([1]; Tumor/Kidney): 4.23 ± 0.07

O=C(O)CC[C@H](NC(=O)N[C@@H](CCCCNC(=O)[C@H](Cc1ccc2ccccc2c1)NC(=O)[C@H]1CC[C@H](CNC(=O)CN2CCN(CC(=O)O)CCN(CC(=O)O)CCN(CC(=O)O)CC2)CC1)C(=O)O)C(=O)O [[^177Lu]Lu-PSMA-617, metal not drawn, reference compound]
tissue uptake dose at 2 h [1]: 4.15 ± 0.06 %ID
tissue uptake dose at 24 h [1]: 1.21 ± 0.03 %ID
tissue uptake at 2 h ([1]; Tissue biodistribution: Blood): 0.08 ± 0.03 %ID/g
tissue uptake at 6 h ([1]; Tissue biodistribution: Blood): 0.03 ± 0.01 %ID/g
tissue uptake at 24 h ([1]; Tissue biodistribution: Bone): 0.11 ± 0.03 %ID/g
tissue uptake at 2 h ([1]; Tissue biodistribution: Heart): 0.1 ± 0.02 %ID/g
tissue uptake at 6 h ([1]; Tissue biodistribution: Heart): 0.06 ± 0.01 %ID/g
tissue uptake at 24 h ([1]; Tissue biodistribution: Heart): 0.05 ± 0.01 %ID/g
tissue uptake at 72 h ([1]; Tissue biodistribution: Heart): 0.05 ± 0.01 %ID/g
tissue uptake at 168 h ([1]; Tissue biodistribution: Heart): 0.06 ± 0.01 %ID/g
tissue uptake at 2 h ([1]; Tissue biodistribution: Kidney): 53 ± 27.4 %ID/g
tissue uptake at 6 h ([1]; Tissue biodistribution: Kidney): 12.3 ± 6.38 %ID/g
tissue uptake at 24 h ([1]; Tissue biodistribution: Kidney): 1.35 ± 0.48 %ID/g
tissue uptake at 168 h ([1]; Tissue biodistribution: Kidney): 0.08 ± 0.03 %ID/g
tissue uptake at 2 h ([1]; Tissue biodistribution: Liver): 0.09 ± 0.02 %ID/g
tissue uptake at 6 h ([1]; Tissue biodistribution: Liver): 0.08 ± 0.02 %ID/g
tissue uptake at 24 h ([1]; Tissue biodistribution: Liver): 0.05 ± 0.01 %ID/g
tissue uptake at 72 h ([1]; Tissue biodistribution: Liver): 0.04 ± 0.01 %ID/g
tissue uptake at 168 h ([1]; Tissue biodistribution: Liver): 0.03 ± 0.01 %ID/g
tissue uptake at 2 h ([1]; Tissue biodistribution: Lung): 0.29 ± 0.05 %ID/g
tissue uptake at 24 h ([1]; Tissue biodistribution: Lung): 0.06 ± 0.01 %ID/g
tissue uptake at 72 h ([1]; Tissue biodistribution: Lung): 0.05 ± 0.01 %ID/g
tissue uptake at 168 h ([1]; Tissue biodistribution: Lung): 0.05 %ID/g
tissue uptake at 2 h ([1]; Tissue biodistribution: Muscle): 0.09 ± 0.03 %ID/g
tissue uptake at 6 h ([1]; Tissue biodistribution: Muscle): 0.05 ± 0.02 %ID/g
tissue uptake at 6 h [1, 3]: 0.1 ± 0.02 %ID/g
tissue uptake at 24 h [1, 3]: 0.06 ± 0.01 %ID/g
tissue uptake at 72 h [1, 3]: 0.05 ± 0.02 %ID/g
tissue uptake at 168 h [1, 3]: 0.05 ± 0.01 %ID/g
tissue uptake at 2 h ([1]; Tissue biodistribution: Spleen): 0.78 ± 0.11 %ID/g
tissue uptake at 72 h ([1]; Tissue biodistribution: Spleen): 0.11 ± 0.04 %ID/g
tissue uptake at 168 h ([1]; Tissue biodistribution: Spleen): 0.09 ± 0.03 %ID/g
tissue uptake at 2 h ([1]; Tissue biodistribution: Tumor): 11.4 ± 2.27 %ID/g
tissue uptake at 6 h ([1]; Tissue biodistribution: Tumor): 12.6 ± 3.23 %ID/g
tissue uptake at 24 h ([1]; Tissue biodistribution: Tumor): 9.84 ± 1.45 %ID/g
tissue uptake at 72 h ([1]; Tissue biodistribution: Tumor): 5.57 ± 0.6 %ID/g
tissue uptake at 168 h ([1]; Tissue biodistribution: Tumor): 0.96 ± 0.5 %ID/g
tissue uptake dose at 2 h [2]: 8.53 ± 0.64 %ID
tissue uptake dose at 6 h [2]: 3.71 ± 1.76 %ID
tissue uptake dose at 24 h [2]: 4.44 ± 3.53 %ID
tissue uptake dose at 72 h [2]: 1.03 ± 0.18 %ID
tissue uptake dose at 168 h [2]: 0.73 ± 0.03 %ID
tissue uptake at 2 h ([2]; Tissue biodistribution: Blood): 0.38 ± 0.05 %ID/g
tissue uptake at 6 h ([2]; Tissue biodistribution: Blood): 0.08 ± 0.04 %ID/g
tissue uptake at 24 h ([2]; Tissue biodistribution: Blood): 0.03 ± 0.01 %ID/g
tissue uptake at 6 h ([2]; Tissue biodistribution: Bone): 0.2 ± 0.01 %ID/g
tissue uptake at 2 h ([2]; Tissue biodistribution: Gland): 0.56 ± 0.04 %ID/g
tissue uptake at 24 h ([2]; Tissue biodistribution: Gland): 0.07 %ID/g
tissue uptake at 72 h ([2]; Tissue biodistribution: Gland): 0.06 %ID/g
tissue uptake at 168 h ([2]; Tissue biodistribution: Gland): 0.06 ± 0.01 %ID/g
tissue uptake at 24 h ([2]; Tissue biodistribution: Heart): 0.06 ± 0.02 %ID/g
tissue uptake at 72 h ([2]; Tissue biodistribution: Heart): 0.06 ± 0.01 %ID/g
tissue uptake at 168 h ([2]; Tissue biodistribution: Heart): 0.07 %ID/g
tissue uptake at 2 h ([2]; Tissue biodistribution: Kidney): 66.9 ± 96.1 %ID/g
tissue uptake at 6 h ([2]; Tissue biodistribution: Kidney): 45.6 ± 37.1 %ID/g
tissue uptake at 24 h ([2]; Tissue biodistribution: Kidney): 3.25 ± 1.04 %ID/g
tissue uptake at 72 h ([2]; Tissue biodistribution: Kidney): 0.96 ± 0.33 %ID/g
tissue uptake at 2 h ([2]; Tissue biodistribution: Liver): 0.21 ± 0.03 %ID/g
tissue uptake at 6 h ([2]; Tissue biodistribution: Liver): 0.11 ± 0.04 %ID/g
tissue uptake at 24 h ([2]; Tissue biodistribution: Liver): 0.07 ± 0.02 %ID/g
tissue uptake at 72 h ([2]; Tissue biodistribution: Liver): 0.06 ± 0.01 %ID/g
tissue uptake at 168 h ([2]; Tissue biodistribution: Liver): 0.04 ± 0.01 %ID/g
tissue uptake at 2 h ([2]; Tissue biodistribution: Lung): 0.91 ± 0.06 %ID/g
tissue uptake at 24 h ([2]; Tissue biodistribution: Lung): 0.09 ± 0.02 %ID/g
tissue uptake at 72 h ([2]; Tissue biodistribution: Lung): 0.05 ± 0.01 %ID/g
tissue uptake at 168 h ([2]; Tissue biodistribution: Lung): 0.05 ± 0.01 %ID/g
tissue uptake at 6 h ([2]; Tissue biodistribution: Muscle): 0.08 ± 0.02 %ID/g
tissue uptake at 168 h ([2]; Tissue biodistribution: Muscle): 0.03 ± 0.02 %ID/g
tissue uptake at 2 h ([2]; Tissue biodistribution: Spleen): 0.7 ± 0.21 %ID/g
tissue uptake at 6 h ([2]; Tissue biodistribution: Spleen): 0.36 ± 0.04 %ID/g
tissue uptake at 2 h ([2]; Tissue biodistribution: Tumor): 30.2 ± 5.26 %ID/g
tissue uptake at 6 h ([2]; Tissue biodistribution: Tumor): 27.4 ± 7.91 %ID/g
tissue uptake at 24 h ([2]; Tissue biodistribution: Tumor): 19.8 ± 4.66 %ID/g
tissue uptake at 72 h ([2]; Tissue biodistribution: Tumor): 11.9 ± 1.2 %ID/g
tissue uptake at 168 h ([2]; Tissue biodistribution: Tumor): 4.74 ± 1.95 %ID/g
